Consider three substances from patent publication US20150368299A1.

Assay [1] concerns the target Aβ(1-40) monomer in 0.1% NH4OH (human). Briefly: dot blot with densitometry; Aβ form dotted on nitrocellulose in serial dilution, antibody 0.2 µg/ml; higher value = weaker recognition.
The target of assay [2] is Aβ(1-42) globulomer (human) (UniProt P05067). The assay is described as above.
Assay [3] concerns the target Aβ(1-42) fibril (human) (UniProt P05067). The assay is described as above.
For assay [4], the target named is Aβ(1-40) monomer in 0.1% NaOH (human). The assay is described as above.
Assay [5] has as its target Aβ(1-42) monomer in 0.1% NaOH (human). The description is as above.
Assay [6] concerns the target Aβ(1-42) monomer in 0.1% NH4OH (human). The description is as above.
The target in assay [7] is human platelet factor 4 (HPF4) in human plasma spiked with human PF4 (human) (UniProt P02776). Briefly: aligned sandwich ELISA with HPF4-spiked human plasma; AUC of the reference anti-HPF4 antibody over AUC of this antibody. On the technique in general: In an ELISA, binding on a coated surface is turned into a signal by an enzyme label.
For assay [8], the target named is platelet factor 4 (PF-4) in Cynomolgus monkey plasma (cynomolgus monkey (Macaca fascicularis)). Briefly: aligned sandwich ELISA with cynomolgus plasma; AUC of the reference anti-HPF4 antibody over AUC of this antibody.
Assay [9] has the same target. Briefly: sandwich ELISA with cynomolgus plasma; AUC of the reference anti-HPF4 antibody over AUC of this antibody.
Assay [10] deals with human platelet factor 4 (HPF4) in human plasma spiked with human PF4 (human) (UniProt P02776). Briefly: sandwich ELISA with HPF4-spiked human plasma; AUC of the reference anti-HPF4 antibody over AUC of this antibody.

Sequence of human platelet factor 4 (HPF4) in human plasma spiked with human PF4 (human) (P02776 32-101): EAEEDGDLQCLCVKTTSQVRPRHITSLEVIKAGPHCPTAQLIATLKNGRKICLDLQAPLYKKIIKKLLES
Sequence of platelet factor 4 (PF-4) in Cynomolgus monkey plasma (cynomolgus monkey (Macaca fascicularis)) (chain, as listed by the source): as the sequence (P02776 32-101) above, with I64V counted along it
Sequence of Aβ(1-40) monomer in 0.1% NaOH (human) (peptide, as listed by the source): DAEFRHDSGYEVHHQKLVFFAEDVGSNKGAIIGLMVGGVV
Sequence of Aβ(1-42) monomer in 0.1% NaOH (human) (peptide, as listed by the source): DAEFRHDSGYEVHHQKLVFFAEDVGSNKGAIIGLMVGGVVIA

As for “Anti-Aβ monoclonal antibody clone 6E10 (Covance cat. no. SIG-39320)”, the dot blot relation of recognition of Aβ(20-42) globulomer to recognition of this Aβ form amounted to 3 in [1]; 0.09 in assay [2]; 29 in assay [3]; 20 in assay [4]; 10 in assay [5]; 10 in [6].

As for “Anti-HPF4 monoclonal antibody (Abcam Cat. No. ab49735)”, the Ratio HPF4/aAβ antibody (PF4 discrimination factor) in [7], in [8], in assay [9] and in assay [10] was 1 throughout.

Monoclonal antibody clone mIgG2a: the Ratio HPF4/aAβ antibody (PF4 discrimination factor) in assay [7] was 118; in assay [8], 325; in assay [9] it was 517; in assay [10], 331.
